Patent publication US20090130697A1 (COLORADO STATE UNIVERSITY RESEARCH FOUNDATION, published 2009)

Molecular target: FLS:Trg:EnvZ:AHK4 hybrid transmembrane histidine kinase (FLS2 plant leader, Trg extracellular domain, EnvZ, …)
Assay: cell-based or functional assay

B1: SS-TNT, computationally designed TNT receptor (sensor protein): PEX secretory sequence fused to the periplasmic ribose binding protein engineered to bind TNT (designed binder)
chain: MERPFGCFFILLLISYTVVAKDTIALVVSTLNSPFLVSLKDGAQKEADKLGYNLVVLDSQNNPAKELANVQDLTVRGTKILLINPTDSDAVGNAVKMANQANIPVITLSSQATKGEVVSHIASDNVLGGKIAGDYIAKKAGEGAKVIELQGIAGTSSARESGEGFQQAVAAHKFNVLASQPADIDRIKGLNVMQNLLTAHPDVQAVFAQFDEMALGALRALQTAGKSDVMVVGFSGTPDGEKAVNDGKLAATIASLPDQIGAKGVETADKVLKGEKVQAKYPVDLKLVVKQDYKDDDDK
B1 was tested, and the “GUS expression from the ARR5 promoter in transgenic Arabidopsis in response to TNT” value was ~2 fold.
